The series has as its target T1, TF-RDR2-RRM (Arabidopsis thaliana, UniProt O82504 1-100).
T1 sequence: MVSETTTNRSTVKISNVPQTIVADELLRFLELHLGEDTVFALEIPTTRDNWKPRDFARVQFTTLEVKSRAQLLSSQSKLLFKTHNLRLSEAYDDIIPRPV
Kind of series: EMSA; protein 1, 3, 9 uM; RNA 2 uM; 2 mM Mg2+; 25 mM Hepes-KOH pH 7.6, 50 mM NaCl, 2 mM MgCl2, RNase inhibitor, 30 min room temperature; 6% native PAGE. The following applies: protein: recombinant; tags: N-terminal trigger factor (TF) fusion, pCold-TF; label: 5' Alexa647; single strand. (A gel shift assay detects complexes by their altered migration in electrophoresis.)

B1: 37-nt ssRNA (ssRNA)
RNA: UCCGUCCGUCUGCUGUGGGUCUCCUUUCUCCUUCUUC
As for B1, the binding result was “binds”.

Source of the values: PMC8713982, “Structure and RNA template requirements of Arabidopsis RNA-DEPENDENT RNA POLYMERASE 2”.
